Among the data in paper doi:10.1101/2025.05.08.652848 (bioRxiv, 2025) are Kd, binding result and fraction of PPARG capable of binding CoA values, retold here.

*: point of attachment. Biotin = O=C1N[C@H]2[C@H](CS[C@H]2CCCCC(=O)*)N1

Assay [1] has as its target His-PPARG LBD (human PPARG ligand-binding domain, residues 231 to 505), wild type (human) (UniProt P37231). The assay is described as follows: AlphaScreen or HTRF. (In general: In Alpha technology, singlet oxygen from a donor bead excites a nearby acceptor bead.)
For assay [2], the target named is T1, RXRA^WT:PPARG LBD heterodimer (human, UniProt P37231;P19793).
T1 sequence 1: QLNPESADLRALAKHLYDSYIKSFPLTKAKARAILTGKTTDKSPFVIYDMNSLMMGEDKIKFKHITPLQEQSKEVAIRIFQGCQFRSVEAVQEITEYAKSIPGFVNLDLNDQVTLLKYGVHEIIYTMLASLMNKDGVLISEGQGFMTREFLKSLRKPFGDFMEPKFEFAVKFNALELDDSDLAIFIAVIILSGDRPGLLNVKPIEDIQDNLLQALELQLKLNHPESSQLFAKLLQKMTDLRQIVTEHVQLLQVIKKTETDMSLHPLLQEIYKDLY
T1 sequence 2: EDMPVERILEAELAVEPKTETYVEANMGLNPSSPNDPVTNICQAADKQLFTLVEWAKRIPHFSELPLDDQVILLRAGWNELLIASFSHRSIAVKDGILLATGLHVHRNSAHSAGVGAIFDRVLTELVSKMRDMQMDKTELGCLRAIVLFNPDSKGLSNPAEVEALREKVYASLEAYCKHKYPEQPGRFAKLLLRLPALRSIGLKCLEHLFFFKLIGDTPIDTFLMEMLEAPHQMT
Nature of the assay: AlphaScreen or HTRF.

Assay [3] addresses N-terminal Avi-tagged PPARG LBD, FTX-6746-modified (human). Nature of the assay: SPR. (In general: In SPR one partner is held on a chip, and binding of the other changes the refractive index at the surface.)
The target of assay [4] is N-terminal Avi-tagged PPARG LBD, unmodified (DMSO) (human). Nature of the assay: SPR.

By Kd is commonly meant the concentration at which binding is half-saturated. The low end stands for a tighter complex, the high end for a looser complex. The molecule biotinylated MED1 LxxLL peptide had a Kd in assay [1] greater than 2.5 µM.

B1: biotinylated NCOR1 ID2 peptide (peptide)
peptide: Biotin-GHSFADPASNLGLEDIIRKALMG-NH2
SMILES: CC[C@H](C)[C@H](NC(=O)[C@H](CC(=O)O)NC(=O)[C@H](CCC(=O)O)NC(=O)[C@H](CC(C)C)NC(=O)CNC(=O)[C@H](CC(C)C)NC(=O)[C@H](CC(N)=O)NC(=O)[C@H](CO)NC(=O)[C@H](C)NC(=O)[C@@H]1CCCN1C(=O)[C@H](CC(=O)O)NC(=O)[C@H](C)NC(=O)[C@H](Cc1ccccc1)NC(=O)[C@H](CO)NC(=O)[C@H](Cc1c[nH]cn1)NC(=O)CNC(=O)CCCC[C@@H]1SC[C@@H]2NC(=O)N[C@@H]21)C(=O)N[C@H](C(=O)N[C@@H](CCCNC(=N)N)C(=O)N[C@@H](CCCCN)C(=O)N[C@@H](C)C(=O)N[C@@H](CC(C)C)C(=O)N[C@@H](CCSC)C(=O)NCC(N)=O)[C@@H](C)CC
In the case of B1, the binding result in assay [2] is “binds”.

B2: biotinylated MED1 LxxLL peptide (peptide)
peptide: Biotin-VSSMAGNTKNHPMLMNLLKDNPAQ-NH2
SMILES: CSCC[C@H](NC(=O)[C@H](CO)NC(=O)[C@H](CO)NC(=O)[C@@H](NC(=O)CCCC[C@@H]1SC[C@@H]2NC(=O)N[C@@H]21)C(C)C)C(=O)N[C@@H](C)C(=O)NCC(=O)N[C@@H](CC(N)=O)C(=O)N[C@H](C(=O)N[C@@H](CCCCN)C(=O)N[C@@H](CC(N)=O)C(=O)N[C@@H](Cc1c[nH]cn1)C(=O)N1CCC[C@H]1C(=O)N[C@@H](CCSC)C(=O)N[C@@H](CC(C)C)C(=O)N[C@@H](CCSC)C(=O)N[C@@H](CC(N)=O)C(=O)N[C@@H](CC(C)C)C(=O)N[C@@H](CC(C)C)C(=O)N[C@@H](CCCCN)C(=O)N[C@@H](CC(=O)O)C(=O)N[C@@H](CC(N)=O)C(=O)N1CCC[C@H]1C(=O)N[C@@H](C)C(=O)N[C@@H](CCC(N)=O)C(N)=O)[C@@H](C)O
Regarding B2, in assay [2], the Kd came out at 0.27 µM and the binding result is recorded as “binds”. The molecule also gave a fraction of PPARG capable of binding CoA in assay [3] of 34%. The molecule also returned a fraction of PPARG capable of binding CoA in assay [4] of 82%.
